Experimental findings from US20140248636 are described below.

The target in series [1] is RpL27a31-50 peptide (…).
Series [2] has as its target RpL8 209-228 peptide (…).

B1: Mina53 (A26-V465), N-terminally hexa-His tagged, recombinant (protein)
chain: AAGGPSALNFDSPSSLFESLISPIKTETFFKEFWEQKPLLIQRDDPALATYYGSLFKLTDLKSLCSRGMYYGRDVNVCRCVNGKKKVLNKDGKAHFLQLRKDFDQKRATIQFHQPQRFKDELWRIQEKLECYFGSLVGSNVYITPAGSQGLPPHYDDVEVFILQLEGEKHWRLYHPTVPLAREYSVEAEERIGRPVHEFMLKPGDLLYFPRGTIHQADTPAGLAHSTHVTISTYQNNSWGDFLLDTISGLVFDTAKEDVELRTGIPRQLLLQVESTTVATRRLSGFLRTLADRLEGTKELLSSDMKKDFIMHRLPPYSAGDGAELSTPGGKLPRLDSVVRLQFKDHIVLTVLPDQDQSDEAQEKMVYIYHSLKNSRETHMMGNEEETEFHGLRFPLSHLDALKQIWNSPAISVKDLKLTTDEEKESLVLSLWTECLIQVV
Take B1: in series [1], the “extent of peptide hydroxylation by MALDI-TOF” value is “hydroxylated to ˜95% as tested by MALDI-TOF analyses” and the “mass increase of the peptide by MALDI-TOF (hydroxylation)” value is recorded as “displayed a 16 Da increase in mass”.

B2: NO66 (A116-N641), N-terminally hexa-His tagged, recombinant (protein)
chain: QTPSARLVPASAPPARLVEVPAAPVRVVETSALLCTAQHLAAVQSSGAPATASGPQVDNTGGEPAWDSPLRRVLAELNRIPSSRRRAARLFEWLIAPMPPDHFYRRLWEREAVLVRRQDHTYYQGLFSTADLDSMLRNEEVQFGQHLDAARYINGRRETLNPPGRALPAAAWSLYQAGCSLRLLCPQAFSTTVWQFLAVLQEQFGSMAGSNVYLTPPNSQGFAPHYDDIEAFVLQLEGRKLWRVYRPRVPTEELALTSSPNFSQDDLGEPVLQTVLEPGDLLYFPRGFIHQAECQDGVHSLHLTLSTYQRNTWGDFLEAILPLAVQAAMEENVEFRRGLPRDFMDYMGAQHSDSKDPRRTAFMEKVRVLVARLGHFAPVDAVADQRAKDFIHDSLPPVLTDRERALSVYGLPIRWEAGEPVNVGAQLTTETEVHMLQDGIARLVGEGGHLFLYYTVENSRVYHLEEPKCLEIYPQQADAMELLLGSYPEFVRVGDLPCDSVEDQLSLATTLYDKGLLLTKMPLALN
Regarding B2, in series [2], the “extent of peptide hydroxylation by MALDI-TOF” value was “hydroxylated to ˜85% as tested by MALDI-TOF analyses” and the “mass increase of the peptide by MALDI-TOF (hydroxylation)” value is on record as “displayed 16 Da increase in mass”.
